This data set has as its target T1, Pet-1 (Rattus norvegicus, UniProt O70132 SEQ:1-340).
T1 sequence: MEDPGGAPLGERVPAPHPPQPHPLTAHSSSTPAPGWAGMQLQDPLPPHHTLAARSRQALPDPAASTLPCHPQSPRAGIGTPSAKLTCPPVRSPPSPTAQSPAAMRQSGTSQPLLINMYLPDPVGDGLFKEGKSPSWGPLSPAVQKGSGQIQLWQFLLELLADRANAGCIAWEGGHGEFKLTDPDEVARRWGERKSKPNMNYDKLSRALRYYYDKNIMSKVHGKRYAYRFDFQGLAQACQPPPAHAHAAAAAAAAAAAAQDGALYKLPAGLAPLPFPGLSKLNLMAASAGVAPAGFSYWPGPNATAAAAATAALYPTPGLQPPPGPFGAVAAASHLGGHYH
Kind of data set: competition; molar excess unlabeled PEA3 eliminated complexes. The note with it: tags: bacterially expressed; label: 32P.

Here are results for 1 molecule from patent publication US20030175830, “Reagents and methods for the screening of compounds useful in the treatment of neurological diseases” (Case Western Reserve University, published 2003).

B1: PEA3 site oligonucleotide (dsDNA)
DNA 1: GATCCAGGAAGTGAC
DNA 2: GTCACTTCCTGGATC
B1: the binding result is on record as “binds”.
